In test [1] the target is T1, purified 185 kD streptococcal antigen (SA) I/II cell surface adhesion molecule (Streptococcus mutans, UniProt P23504 39-1532).
T1 construct: also called purified SA; streptococcal antigen I/II
T1 sequence (looked up): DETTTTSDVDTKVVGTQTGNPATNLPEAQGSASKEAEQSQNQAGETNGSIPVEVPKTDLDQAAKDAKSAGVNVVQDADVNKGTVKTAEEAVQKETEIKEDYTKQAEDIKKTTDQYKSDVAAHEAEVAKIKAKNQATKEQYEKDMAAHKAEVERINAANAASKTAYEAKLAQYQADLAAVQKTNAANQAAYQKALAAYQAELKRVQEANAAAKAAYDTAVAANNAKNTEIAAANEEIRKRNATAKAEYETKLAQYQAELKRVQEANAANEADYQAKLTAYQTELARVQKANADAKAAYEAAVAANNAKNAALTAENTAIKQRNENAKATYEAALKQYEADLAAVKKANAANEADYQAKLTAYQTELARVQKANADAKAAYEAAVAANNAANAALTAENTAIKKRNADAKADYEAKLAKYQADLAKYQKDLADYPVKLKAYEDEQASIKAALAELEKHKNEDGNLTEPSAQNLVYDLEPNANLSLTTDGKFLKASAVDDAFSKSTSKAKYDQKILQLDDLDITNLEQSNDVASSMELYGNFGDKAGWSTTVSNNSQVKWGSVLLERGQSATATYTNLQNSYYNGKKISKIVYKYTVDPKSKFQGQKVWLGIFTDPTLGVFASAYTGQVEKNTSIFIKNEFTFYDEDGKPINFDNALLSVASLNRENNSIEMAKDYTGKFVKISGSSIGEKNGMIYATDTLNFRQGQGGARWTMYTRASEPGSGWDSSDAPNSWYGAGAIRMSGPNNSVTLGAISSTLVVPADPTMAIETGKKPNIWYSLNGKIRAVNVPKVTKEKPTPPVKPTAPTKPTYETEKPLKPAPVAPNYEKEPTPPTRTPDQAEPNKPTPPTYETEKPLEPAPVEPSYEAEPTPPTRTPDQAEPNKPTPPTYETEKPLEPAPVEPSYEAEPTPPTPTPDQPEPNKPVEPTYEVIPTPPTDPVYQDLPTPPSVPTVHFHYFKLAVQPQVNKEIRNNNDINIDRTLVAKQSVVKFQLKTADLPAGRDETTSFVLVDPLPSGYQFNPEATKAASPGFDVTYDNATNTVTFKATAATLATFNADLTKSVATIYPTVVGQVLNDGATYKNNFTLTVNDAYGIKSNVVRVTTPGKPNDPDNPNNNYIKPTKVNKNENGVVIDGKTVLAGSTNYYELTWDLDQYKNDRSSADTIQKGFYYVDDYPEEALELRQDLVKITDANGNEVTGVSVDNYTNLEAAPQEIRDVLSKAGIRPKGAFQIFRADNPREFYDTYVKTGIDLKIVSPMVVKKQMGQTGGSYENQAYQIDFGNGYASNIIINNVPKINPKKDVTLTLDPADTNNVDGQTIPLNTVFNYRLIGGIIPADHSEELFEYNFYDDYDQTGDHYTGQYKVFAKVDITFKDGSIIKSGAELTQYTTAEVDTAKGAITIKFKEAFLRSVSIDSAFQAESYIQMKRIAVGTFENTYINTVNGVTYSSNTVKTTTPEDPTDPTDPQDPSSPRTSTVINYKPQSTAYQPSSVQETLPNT
In words: ELISA of plant leaf extract on purified SA I/II coated plates. A general note: ELISA stands for enzyme-linked immunosorbent assay.

Test [2] concerns the target dIgA-G, plant-expressed dimeric IgA-G with mouse J chain (murine; mouse) (UniProt P01878). Nature of the test: initial estimate in extracts of SIgA-G plants (data not shown).

The values that follow come from patent US6852319 (Scripps Research, dated 2005).

Chain of dIgA-G, plant-expressed dimeric IgA-G with mouse J chain (murine; mouse) (P01878 116-344, form in doubt): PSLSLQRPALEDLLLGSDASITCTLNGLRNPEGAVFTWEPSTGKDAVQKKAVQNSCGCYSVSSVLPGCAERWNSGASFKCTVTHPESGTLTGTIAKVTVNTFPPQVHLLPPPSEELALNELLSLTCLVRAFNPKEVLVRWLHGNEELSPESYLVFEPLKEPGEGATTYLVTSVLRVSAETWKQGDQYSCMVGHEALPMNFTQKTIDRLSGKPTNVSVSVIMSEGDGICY

B1: mouse J chain expressed in tobacco (other)
chain: GDDEATILADNKCMCTRVTSKIIPSTEDPNEDIVERNIRIVVPLNNRENISDPTSPLRRNFVYHLSDVCKKCDPVEVELEDQVVTATQSNICNEDDGVPETCYMYDRNKCYTTMVPLRYHGETKMVQAALTPDSCYPD
notes: also called joining chain
Take B1: in test [1], the binding result is given as “no binding”.

B2: rabbit secretory component (SC) construct expressed in tobacco (receptor)
chain: QSSLLGPSSIFGPGEVNVLEGDSVSITCYYPTTSVTRHSRKFWCREEESGRCVTLASTGYTSQEYSGRGKLTDFPDKGEFVVTVDQLTQNDSGSYKCGVGVNGRGLDFGVNVLVSQKPEPDDVVYKQYESYTVTITCPFTYATRQLKKSFYKVEDGELVLIIDSSSKEAKDPRYKGRITLQIQSTTAKEFTVTIKHLQLNDAGQYVCQSGSDPTAEEQNVDLRLLTPGLLYGNLGGSVTFECALDSEDANAVASLRQVRGGNVVIDSQGTIDPAFEGRILFTKAENGHFSVVIAGLRKEDTGNYLCGVQSNGQSGDGPTQLRQLFVNEEIDVSRSPPVLKGFPGGSVTIRCPYNPKRSDSHLQLYLWEGSQTRHLLVDSGEGLVQKDYTGRLALFEEPGNGTFSVVLNQLTAEDEGFYWCVSDDDESLTTSVKLQIVDGEPSPTIDKFTAVQGEPVEITCHFPCKYFSSEKYWCKWNDHGCEDLPTKLSSSGDLVKCNNNLVLTLTLDSVSEDDEGWYWCGAKDGHEFEEVAAVRVELTEPAKVAVEPAKVPVDPAKAAPAPAEEKAKARCPVPRRRQWYPLSRKLRTSCPEPRLLAEEVAVQSAE
notes: also called rabbit SC
On to B2, for which, in test [2], the percent of SC associated with dimeric IgA-G was 50%. Moreover, the binding result in test [1] is reported as “no binding”.
